Test system: iron co-factored superoxide dismutase (SodA) of M. tuberculosis/BCG, wild type, as produced by BCG

mutant SodA ΔE54 (also contains H28R substitution)
total SOD activity, 3D-BCG (ΔE54 SodA mutant put into DD-BCG) versus DD-BCG: FIG. 16; 16-fold reduction
total SOD activity, ΔE54 SodA mutant in BCG or SIG-BCG: FIGS. 4, 14; 2- to 4-fold reduction
